Reference: article PMC5752668 (Nature Communications, 2018)

B1: GtgE_(FL,C45A) (full-length catalytically inactive GtgE, residues 1-228) (enzyme)
chain: MLRHIQNSLGSVYRSNTATPQGQIIHHRNFQSQFDTTGNTLYNNAWVCSLNVIKSRDGNNYSALEDITSDNQAFNNILEGIDIIECENLLKEMNVQKIPESSLFTNIKEALQAEVFNSTVEDDFESFISYELQNHGPLMLIRPSLGSECLHAECIVGYDSEVKKVLIYDSMNTSPEWQSNIDVYDKLTLAFNDKYKNEDCSICGLYYDGVYEPKPLHSSSWKDWCTIL
notes: source: E. coli BL21(DE3)-RIL, purified (Ni-IMAC, TEV cleavage, second IMAC)
B2: Rab32FL:GDP (full-length Rab32, residues 1-225, GDP-bound) (natural protein)
chain: MAGGGAGDPGLGAAAAPAPETREHLFKVLVIGELGVGKTSIIKRYVHQLFSQHYRATIGVDFALKVLNWDSRTLVRLQLWDIAGQERFGNMTRVYYKEAVGAFVVFDISRSSTFEAVLKWKSDLDSKVHLPNGSPIPAVLLANKCDQNKDSSQSPSQVDQFCKEHGFAGWFETSAKDNINIEEAARFLVEKILVNHQSFPNEENDVDKIKLDQETLRAENKSQCC
notes: also called Rab32:GDP; Rab32_(1-225); source: E. coli BL21(DE3)-RIL, purified (Ni-IMAC, TEV cleavage, second IMAC, SEC)
B3: Rab32FL-Atto488 (Rab32:GDP labelled at thiol groups with Atto488-Maleimide) (natural protein)
chain: B2 chain
modifications: thiol groups covalently labeled with Atto488-Maleimide
notes: also called Rab32:GDP_(fluor.); fluorescently labeled Rab32FL:GDP; source: E. coli BL21(DE3)-RIL, purified, then labelled with Atto488-Maleimide
B4: Rab32_(18-201):GDP (truncated Rab32, lysine-methylated, for crystallization) (domain or fragment)
chain: APETREHLFKVLVIGELGVGKTSIIKRYVHQLFSQHYRATIGVDFALKVLNWDSRTLVRLQLWDIAGQERFGNMTRVYYKEAVGAFVVFDISRSSTFEAVLKWKSDLDSKVHLPNGSPIPAVLLANKCDQNKDSSQSPSQVDQFCKEHGFAGWFETSAKDNINIEEAARFLVEKILVNHQSFPN
notes: source: E. coli BL21(DE3)-RIL, purified; complex reductively methylated

Legend:
[1] = biological target: T1, Rab32_1-225:GDP:GtgE1-228,C45A complex (Homo sapiens, UniProt Q13637); assay: X-ray crystallography, […] Å; type: binding; conditions: nucleotide site of Rab32; crystals from 0.05 M imidazole pH 8, 20% PEG 6000
T1 construct: gene RAB32; full-length Rab32 and full-length GtgE C45A, E. coli, His6-MBP tag cut by TEV, reductively lysine-methylated complex, 1:1 heterodimer; with Cysteine protease GtgE (Salmonella enterica serovar Typhimurium SL1344)

Rab32FL = biological target: T2, Rab32FL (Homo sapiens, UniProt Q13637); assay: intrinsic GTP hydrolysis, ion-pairing RP-HPLC of nucleotide content; type: biochemical; conditions: intrinsic GTPase, no GAP; single-exponential fit
T2 construct: gene RAB32; full length, E. coli, N-terminal His6-MBP tag cut by TEV, monomer by SEC
T2 sequence (Q13637 1-225): B2 chain

[2] = biological target: B2; assay: ITC; conditions: both partners purified
[3] = biological target: B1; assay: ITC; conditions: both partners purified
[4] = biological target: B1; assay: AUC; conditions: both partners purified
[5] = biological target: T3, GtgE_(21-214,C45A) (truncated inactive GtgE, lysine-methylated, for crystallization) (Salmonella enterica serovar Typhimurium …, UniProt Q6EAT3 21-214, C45A, surface exposed lysine residues reductively methylated); assay: crystal structure; conditions: both partners purified
T3 construct: source: E. coli BL21(DE3)-RIL, purified; complex reductively methylated
T3 sequence: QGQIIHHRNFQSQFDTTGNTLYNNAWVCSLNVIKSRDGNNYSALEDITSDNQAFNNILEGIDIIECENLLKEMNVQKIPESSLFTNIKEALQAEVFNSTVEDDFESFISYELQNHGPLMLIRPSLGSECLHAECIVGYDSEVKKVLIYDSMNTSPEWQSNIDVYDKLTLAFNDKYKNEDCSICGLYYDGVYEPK

T1 sequence (Q6EAT3 entry or part of it C45A, one chain of several): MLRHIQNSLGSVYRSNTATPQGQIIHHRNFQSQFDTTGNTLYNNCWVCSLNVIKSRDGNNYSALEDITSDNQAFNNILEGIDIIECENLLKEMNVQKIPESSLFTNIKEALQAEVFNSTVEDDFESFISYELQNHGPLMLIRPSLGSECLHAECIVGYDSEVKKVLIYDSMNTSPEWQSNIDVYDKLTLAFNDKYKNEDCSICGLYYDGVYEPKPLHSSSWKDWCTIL

For `Nc1nc2c(ncn2[C@@H]2O[C@H](COP(=O)(O)OP(=O)(O)O)[C@@H](O)[C@H]2O)c(=O)[nH]1` [GDP], the “X-ray crystallography, 2.9 Å” value [1] was “The full-length Rab32:GDP:GtgEC45A structure was solved by molecular replacement”.

For `Nc1nc2c(ncn2[C@@H]2O[C@H](COP(=O)(O)OP(=O)(O)OP(=O)(O)O)[C@@H](O)[C@H]2O)c(=O)[nH]1` [GTP], the k hydr (Rab32FL) was “Rab32 has an exceptionally slow intrinsic GTPase-activity with an hydrolysis constant determined”.

In the case of B1, the “stoichiometry N” value [2] is reported as 1.

For B2, the Kd [3] was 96 nM.

In the case of B3, the Kd [4] is reported as 118 nM.

B4: binds [5].
